The source of these data is article PMC7065143, “Substrate Flexibility of the Flavin‐Dependent Dihydropyrrole Oxidases PigB and HapB Involved in Antibiotic Prodigiosin Biosynthesis” (Chembiochem, 2019).

Substrate in the series: CCCCCC1CCN=C1C
Briefly: purified protein. Format: biochemical, Hahella chejuensis. The following applies: MES pH 6.0 10 mM, 30 °C, air, DMSO, racemic substrate 0.1–1.4 mM, HapB 0.457 μM.

B1: HapB (Hahella chejuensis KCTC 2396) (protein)
chain: MESQDNSQYAGEAPVFPSKDFECNQGSFDDTDTSPPQHAGDYDVIVVGGGISGLSSAWKLRERKLLVLDQRDRFGGAARLEQRDGLLYASGASCFQLPTGHNEVSHLLQDLDLWNQWRSTAEDTLVIFDTKRLMKGLGEVTAALLKQPKELLKPAVWGLTANLLYSAMSGKPFISAEKKLGDPMFADLFQYLNRFTPDSGKHPAMPWREGCDWTREEMELFDSVSLHDLLFDPATRRSLPQDLIPRHRFGSLVKDAVETTLRVECLAIKDVSAYVGLHFLVGYLYRPLVTFPGGNGYIADRIRQRLMSTGSCKFKAGSRAYSITQNQEGVKVCFQQEGKNYYANANALIWAGAKHAAVSVVDGLPQQQKAAIAEIEHRDYAIAGVYLKKAALANYFGGYVIEGDIGGRYPNSWCRSGVCLAANWKDPSYAGGLGVLTLLKPISGAADQGKLGKADFRNLQQTAYGEVRDMLVATGHSPDLIEDIKLWRWPHGLVVSKVGQMKHDVFVNASQPVGAVFFANQDSVGMGNMESAIWAGCHAAEQVRRHFRSHSSVVSHIGDYAATQS
notes: full-length, N-terminal His6 tag (pQE80-L, pHDB1), E. coli BL21, Ni-NTA; soluble, lacks the N-terminal transmembrane domain of PigB
For orientation: Km means the substrate concentration at which the rate is half of its maximum. Usually kcat stands for the maximal rate divided by the concentration of active sites. As for B1, the Km stood at 0.22 ± 0.08 mM and the kcat is 13.7 ± 1.2 min⁻¹.
